This is an account of results in paper PMC4027207, “Molecular dissection of the domain architecture and catalytic activities of human PrimPol” (Nucleic Acids Research, 2014).

In this series the target is T1, PrimPol372-560/ZF-KO (Homo sapiens, UniProt Q96LW4 372-560, C419A;H426A).
T1 sequence: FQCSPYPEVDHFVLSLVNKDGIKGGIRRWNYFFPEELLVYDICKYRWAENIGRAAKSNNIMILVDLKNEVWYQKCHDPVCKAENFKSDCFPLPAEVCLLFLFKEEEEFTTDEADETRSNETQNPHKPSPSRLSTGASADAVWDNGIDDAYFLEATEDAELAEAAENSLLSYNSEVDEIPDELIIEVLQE
Nature of the series: EMSA; 10 mM Mg2+; 40 nM DNA; no binding, protein 0.05-20 uM; 10 mM Bis-Tris-Propane-HCl pH 7.0, 10 mM MgCl2, 1 mM DTT, 40 nM DNA, 25°C, 60 min; 5% polyacrylamide gel in 0.5x TBE. The settings on record: protein: recombinant; tags: His (Ni-NTA purified); label: 5'-Hex. (Mobility shift assays separate free from complexed probe on a gel.)

As to TGTCGTCTGTTCGGTCGTTCGGTCTTCAAGGCTGTTGTGCGCCCTGCGCG (ssDNA) [HP-50 ssDNA (sequence 7)], the binding result is recorded as “no binding”.
